Details: Thermotoga maritima (strain ATCC 43589 / DSM 3109 / JCM 10099 / NBRC 100826 / MSB8), Thermal, DSC
[1] = pH 4, Sodium acetate 20 mM, reversible: yes
[2] = pH 4.5, Sodium acetate 20 mM, reversible: yes(94%)
[3] = pH 4.8, Sodium acetate 20 mM, reversible: yes(91%)
[4] = pH 5.7, Sodium cacodylate-HCl 20 mM, reversible: yes(97%)
[5] = pH 6, Sodium cacodylate-HCl 20 mM, reversible: yes(98%)
[6] = pH 6.1, Sodium cacodylate-HCl 20 mM, reversible: yes(97%)
[7] = pH 6.35, Sodium cacodylate-HCl 20 mM, reversible: yes
[8] = pH 6.75, Sodium cacodylate-HCl 20 mM, reversible: yes
[9] = pH 7, Sodium cacodylate-HCl 20 mM, reversible: yes(95%)
[10] = pH 7.2, Sodium phosphate 20 mM, reversible: yes(97%)
[11] = pH 7.25, Sodium cacodylate-HCl 20 mM, reversible: yes(98%)
[12] = pH 7.4, Sodium phosphate 20 mM, reversible: yes(98%)
[13] = pH 7.5, Sodium phosphate 20 mM, reversible: yes(97%)
[14] = pH 8.1, borate-NaOH 20 mM, reversible: yes(99%)
[15] = pH 8.4, borate-NaOH 20 mM, reversible: yes(97%)
[16] = pH 8.5, borate-NaOH 20 mM, reversible: yes(98%)
[17] = pH 8.9, borate-NaOH 20 mM, reversible: yes

Sequence of Cold shock-like protein wild type, O54310 (O54310 whole entry): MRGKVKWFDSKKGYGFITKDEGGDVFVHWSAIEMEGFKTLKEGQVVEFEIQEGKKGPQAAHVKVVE

Substance: Cold shock-like protein wild type, O54310
- Tm [1]: 87.9 °C
- heat capacity change of unfolding [1]: 0.36 kcal/mol/K
- unfolding enthalpy (calorimetric) [1]: 50.1 kcal/mol
- Tm [2]: 91.6 °C
- heat capacity change of unfolding [2]: 0.05 kcal/mol/K
- unfolding enthalpy (calorimetric) [2]: 56.2 kcal/mol
- Tm [3]: 94.1 °C
- heat capacity change of unfolding [3]: 0.22 kcal/mol/K
- unfolding enthalpy (calorimetric) [3]: 62 kcal/mol
- unfolding enthalpy (van 't Hoff) [3]: 57 kcal/mol
- Tm [4]: 93.3 °C
- heat capacity change of unfolding [4]: 0.08 kcal/mol/K
- unfolding enthalpy (calorimetric) [4]: 71.9 kcal/mol
- unfolding enthalpy (van 't Hoff) [4]: 68.3 kcal/mol
- Tm [5]: 92.1 °C
- heat capacity change of unfolding [5]: 0.17 kcal/mol/K
- unfolding enthalpy (calorimetric) [5]: 74.6 kcal/mol
- unfolding enthalpy (van 't Hoff) [5]: 71 kcal/mol
- Tm [6]: 91.2 °C
- heat capacity change of unfolding [6]: 0.55 kcal/mol/K
- unfolding enthalpy (calorimetric) [6]: 69.5 kcal/mol
- unfolding enthalpy (van 't Hoff) [6]: 64.5 kcal/mol
- Tm [7]: 89.6 °C
- heat capacity change of unfolding [7]: 0.5 kcal/mol/K
- unfolding enthalpy (calorimetric) [7]: 68 kcal/mol
- unfolding enthalpy (van 't Hoff) [7]: 63 kcal/mol
- Tm [8]: 85.8 °C
- heat capacity change of unfolding [8]: 0.18 kcal/mol/K
- unfolding enthalpy (calorimetric) [8]: 65 kcal/mol
- unfolding enthalpy (van 't Hoff) [8]: 58.3 kcal/mol
- Tm [9]: 82 °C
- heat capacity change of unfolding [9]: 0.36 kcal/mol/K
- unfolding enthalpy (calorimetric) [9]: 62.6 kcal/mol
- unfolding enthalpy (van 't Hoff) [9]: 60.8 kcal/mol
- Tm [10]: 83.1 °C
- heat capacity change of unfolding [10]: 0.22 kcal/mol/K
- unfolding enthalpy (calorimetric) [10]: 65.3 kcal/mol
- unfolding enthalpy (van 't Hoff) [10]: 61 kcal/mol
- Tm [11]: 82.8 °C
- heat capacity change of unfolding [11]: 0.4 kcal/mol/K
- unfolding enthalpy (calorimetric) [11]: 61.3 kcal/mol
- unfolding enthalpy (van 't Hoff) [11]: 57.5 kcal/mol
- Tm [12]: 80.8 °C
- heat capacity change of unfolding [12]: 0.38 kcal/mol/K
- unfolding enthalpy (calorimetric) [12]: 60.8 kcal/mol
- unfolding enthalpy (van 't Hoff) [12]: 55.7 kcal/mol
- Tm [13]: 81.1 °C
- heat capacity change of unfolding [13]: 0.11 kcal/mol/K
- unfolding enthalpy (calorimetric) [13]: 54.4 kcal/mol
- unfolding enthalpy (van 't Hoff) [13]: 50.4 kcal/mol
- Tm [14]: 81 °C
- heat capacity change of unfolding [14]: 0.01 kcal/mol/K
- unfolding enthalpy (calorimetric) [14]: 54.7 kcal/mol
- unfolding enthalpy (van 't Hoff) [14]: 51 kcal/mol
- Tm [15]: 77.5 °C
- heat capacity change of unfolding [15]: 0.5 kcal/mol/K
- unfolding enthalpy (calorimetric) [15]: 56.1 kcal/mol
- Tm [16]: 77.6 °C
- heat capacity change of unfolding [16]: 0.06 kcal/mol/K
- unfolding enthalpy (calorimetric) [16]: 53.9 kcal/mol
- unfolding enthalpy (van 't Hoff) [16]: 51.7 kcal/mol
- Tm [17]: 75.5 °C
- heat capacity change of unfolding [17]: 0.5 kcal/mol/K
- unfolding enthalpy (calorimetric) [17]: 56.1 kcal/mol

Reference: FireProtDB (doi:10.1006/jmbi.1999.2772)
